Experimental data: patent publication US20080020994

System: purified wild-type Gα13 pre-loaded with GDP
Sequence (chain, as listed by the source): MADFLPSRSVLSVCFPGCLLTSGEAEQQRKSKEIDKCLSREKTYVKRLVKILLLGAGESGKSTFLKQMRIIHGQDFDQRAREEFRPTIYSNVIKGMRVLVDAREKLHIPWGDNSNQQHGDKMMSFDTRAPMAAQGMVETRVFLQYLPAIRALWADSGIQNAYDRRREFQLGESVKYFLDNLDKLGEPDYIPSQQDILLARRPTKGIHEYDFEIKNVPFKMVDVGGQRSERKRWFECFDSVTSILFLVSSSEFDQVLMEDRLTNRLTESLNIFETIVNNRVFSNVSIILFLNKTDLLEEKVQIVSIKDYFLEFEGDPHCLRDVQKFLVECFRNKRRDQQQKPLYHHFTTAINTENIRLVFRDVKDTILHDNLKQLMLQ

purified Rac1(GTPγS)
guanine nucleotide exchange or GTPase activity: No significant changes in these activities were examined
